{
  "source": "paper PMC5042576",
  "target": "Actin filaments decorated with Tpm3.1 (chicken | human) (UniProt P68139)",
  "data": [
    {"substance": "Mouse melanophilin with N-terminal SNAP tag and C-terminal Flag tag (from UniProt Q91V27 1-590) (natural protein)", "values": [
      {"measurement": "fold affinity against actin–Tpm1.8 and actin–Tpm4.2", "result": 2, "unit": "fold"}
    ]}
  ]
}
